1 protein from paper PMC11547725, “Cold-Active Lipase from the Ice Cave Psychrobacter SC65A.3 Strain, a Promising Biocatalyst for Silybin Acylation” (Molecules, 2024) can be followed below.

As usually defined, the Km is the substrate concentration at which the rate is half of its maximum. As a reminder, the kcat/Km is the turnover number divided by the Michaelis constant.

Holding throughout (assay): purified protein
What all share (format): biochemical, Psychrobacter sp. SC65A.3

Substrate in data set [1]: CCCC(=O)Oc1ccc([N+](=O)[O-])cc1
The settings on record: 25 °C, 50 mM Tris HCl pH 7.2, substrate in ethanol.

Substrate in data set [2]: CCCCCCCCCCCCCCCC(=O)Oc1ccc([N+](=O)[O-])cc1
To be noted: 25 °C, 50 mM Tris HCl pH 7.2.

Substrate in data set [3]: CCCCCCCCCCCCCCCCCC(=O)Oc1ccc([N+](=O)[O-])cc1
The settings on record: 25 °C.

B1: PSL2 (Psychrobacter sp. SC65A.3) (protein)
chain: MSNSTVLSVNTLLNKAVKTLNLMSFGQDKNPKSTDINLSDEIIDIEESALQDSREDKGLSIKEKILEHHLMTNYQPHLLHYAIKSFGCLPTPILESLIKCLDGPTSKQYLHVDAHLRLILAVNSKLKTPLQLIEMSELRKRFATDAVAMQAPKVWQQASDNLLSNLKQFHKKGDSAISWQDRTITNADDGDMTIRCYQNETSDNGFGFKKEQTSNPDETVLLFFHGGGFCIGDLNTHHEFCHAICEQTGWPVISVDYRLAPEHPAPAAVRDCISAYAWLAEHCEEFGALPSRIVLAGDSAGGGLSTLMAQQIITPNKEAWLDLGDEGQKTFDILQGLPHPMAQMPLYPVTDIETDYPSWELYGEGLLLDHADVAIFDAACLENSPLPRQHILTSPMLGDNRQVCPSYVVAAELDVLRDEAFAYANQLKSFGIAVQTHTVLGAPHGFIHFMSVHQRLGQETQHIITGFANFVREIIKTRALLSA
Turning to B1, the values for the Michaelis-Menten constant (Km) in “purified protein [1]”, in the data set “purified protein [2]” and in the data set “purified protein [3]” (50 mM Tris HCl pH 7.2) were 2.38 mM, 4.30 mM and 3.70 mM, respectively. Moreover, the specificity constant (kcat/Km) in “purified protein [1]” (text b41 swaps the kcat of butyrate and stearate, table value taken (fits kcat/Km)) worked out at 25 M⁻¹ s⁻¹; in “purified protein [2]” it was 5.75 M⁻¹ s⁻¹; in the data set “purified protein [3]” (50 mM Tris HCl pH 7.2, text b41 swaps the kcat of butyrate and stearate, table value taken (fits kcat/Km)), 13.9 M⁻¹ s⁻¹.
